Data as given in US20110262471A1 (ONCOTHERAPY SCIENCE, published 2011).

T1: human beta 2m-HLA-A2.1 (alpha 1, alpha 2)-H-2 Db (alpha 3 transmembrane cytoplasmic; HHD) monochain (human; mouse, UniProt P61769 21-119; P01899 207-362)
T1 chain (looked up): not shown


Target: T1, human beta 2m-HLA-A2.1 (alpha 1, alpha …)
Assay: cell-based or functional assay

Row | IFN-gamma ELISPOT of CD4- spleen cells of immunized HLA-A2.1 (HHD) Tgm, in response to BM-DCs pulsed with the peptide | Binder
1 | 149 spot counts/well | LLSDDDVVV [RAB6KIFL-A2-9-12 peptide]
2 | 141 spot counts/well | AQPDTAPLPV [RAB6KIFL-A2-10-284 peptide]
3 | 117 spot counts/well | CIAEQYHTV [RAB6KIFL-A2-9-809 peptide]
